The text below walks through data of patent publication US20150018285A1 (CARMEL HAIFA UNIVERSITY ECONOMIC, published 2015).

Test [1] concerns the target T1, B-cell CLL/lymphoma 2 (Bcl-2) (human, UniProt P10415 1-239).
T1 construct: Used as endogenous Bcl-2 (HeLa, BT-549) or from a transfected Bcl-2 construct; also called Bch 2; endogenous Bcl-2
Kind of test: immunoprecipitation of transfected HeLa lysates with anti-Bcl-2 antibody, Western blot with anti-ARTS (FIG. 11A).

Test [2] addresses T2, X-linked inhibitor of apoptosis protein (XIAP) (human, UniProt P98170 1-497).
T2 construct: Endogenous XIAP in cell lysates; also called IAP3; BIRC
Kind of test: IP of the mitochondrial fraction with anti-Bcl-2 antibody, Western blot (FIG. 4E). Here is the method: Mitochondrial fraction was immunoprecipitated using anti-Bcl-2 antibody. The precipitate was analyzed by Western blotting.
Background: Immunoblotting shows a protein as a band on a membrane.

The target of test [3] is T3, B-cell lymphoma-extra large (Bcl-xL) (human, UniProt Q07817 1-233).
T3 construct: also called Bch xL
Kind of test: IP with monoclonal anti-ARTS antibody from HeLa wt lysate, Western blot (FIG. 9); binding still seen after 24 h of ABT-263.

The target in test [4] is T2, X-linked inhibitor of apoptosis protein …. The experiment in a line: IP with anti-ARTS monoclonal antibody from COS-7 cells transfected with the 6-Myc-ARTS construct; the partner is endogenous in COS-7 (FIG. 4B). How it is done:
FIG. 4B. […] The precipitate was analyzed by Western blotting.

T2 sequence (P98170 whole entry): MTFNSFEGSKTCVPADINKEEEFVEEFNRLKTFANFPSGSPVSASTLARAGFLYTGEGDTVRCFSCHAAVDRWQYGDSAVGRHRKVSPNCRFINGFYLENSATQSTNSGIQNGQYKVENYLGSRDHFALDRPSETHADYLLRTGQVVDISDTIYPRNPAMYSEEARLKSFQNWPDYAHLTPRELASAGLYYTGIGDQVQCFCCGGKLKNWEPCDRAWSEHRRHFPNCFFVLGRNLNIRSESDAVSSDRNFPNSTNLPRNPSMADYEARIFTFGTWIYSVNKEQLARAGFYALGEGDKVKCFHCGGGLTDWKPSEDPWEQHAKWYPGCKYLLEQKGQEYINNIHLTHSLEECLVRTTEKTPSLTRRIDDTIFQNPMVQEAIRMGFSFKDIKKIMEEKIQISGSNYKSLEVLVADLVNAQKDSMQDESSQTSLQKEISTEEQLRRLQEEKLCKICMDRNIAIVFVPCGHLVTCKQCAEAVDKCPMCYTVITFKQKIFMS
T1 sequence (P10415 whole entry): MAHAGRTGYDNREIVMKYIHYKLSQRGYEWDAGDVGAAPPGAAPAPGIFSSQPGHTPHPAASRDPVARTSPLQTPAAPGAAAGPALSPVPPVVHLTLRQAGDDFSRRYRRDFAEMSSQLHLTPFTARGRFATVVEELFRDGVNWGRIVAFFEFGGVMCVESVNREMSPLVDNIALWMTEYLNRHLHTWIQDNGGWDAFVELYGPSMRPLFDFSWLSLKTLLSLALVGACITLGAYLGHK
T3 sequence (Q07817 whole entry G70A): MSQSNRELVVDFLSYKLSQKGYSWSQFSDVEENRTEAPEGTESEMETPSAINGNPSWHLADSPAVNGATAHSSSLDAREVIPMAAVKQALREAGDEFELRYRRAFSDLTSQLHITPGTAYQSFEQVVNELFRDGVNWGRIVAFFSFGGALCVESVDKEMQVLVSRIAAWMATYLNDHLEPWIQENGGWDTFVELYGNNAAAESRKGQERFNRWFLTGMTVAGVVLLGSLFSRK

B1: 128 amino acids N' terminus deletion mutated ARTS (other)
chain: MVAGESGLGKSTLVNSLFLTDLYRDRKLLGAEERIMQTVEITKHAVDIEEKGVRLRLTIVDTPGFGDAVNNTECWKPVAEYIDQQFEQYFRDESGLNRKNIQDNRVHCCLYFISPFGHGYGPSLRLLAPPGAVKGTGQEHQGQGCH
As to B1, the binding result in test [1] is given as “no binding”.

B2: Apoptosis Related Protein in the TGF-beta Signaling Pathway (ARTS) (other)
chain: MIKRFLEDTTDDGELSKFVKDFSGNASCHPPEAKTWASRPQVPEPRPQAPDLYDDDLEFRPPSRPQSSDNQQYFCAPAPLSPSARPRSPWGKLDPYDSSEDDKEYVGFATLPNQVHRKSVKKGFDFTLMVAGESGLGKSTLVNSLFLTDLYRDRKLLGAEERIMQTVEITKHAVDIEEKGVRLRLTIVDTPGFGDAVNNTECWKPVAEYIDQQFEQYFRDESGLNRKNIQDNRVHCCLYFISPFGHGYGPSLRLLAPPGAVKGTGQEHQGQGCH
notes: also called FL ARTS; full length ARTS
On to B2, for which the binding result in test [2] and in test [3] was “binds” in each case.

B3: 6-Myc-ARTS (other)
chain: B2 chain
notes: Expressed by transient transfection in COS-7 cells; also called pSC2-6Myc ARTS; not shown: 6xMyc tag of pSC2-6Myc
For B3, the binding result in test [4] is “binds”.
